Columns and labels:
[1] = tested on: NCTC1469; experiment: 125I-BMP-9 binding to NCTC1469 liver cell line; conditions: iodinated CHO-derived BMP-9
Procedure: (§1) BMP-9 responsiveness in parenchymal liver cells is tested by screening four liver cell lines for their ability to bind iodinated, CHO-derived BMP-9. […] Specific binding of BMP-9 to HepG2 cells is carried out by incubating HepG2 cells grown to confluence in Dulbecco's Modified Eagle's Medium (DME) containing 10% heat-inactivated fetal calf serum (FCS) on gelatinized 6 well plates with 2 ng/ml ^125 I-BMP-9 and increasing concentrations of unlabelled BMP-9 in binding buffer (136.9 mM NaCl, 5.37 mM KCl, 1.26 mM CaCl2, 0.64 mM MgSO4, 0.34 mM Na2 HPO4, 0.44 mM KH2 PO4, 0.49 mM MgCl2, 25 mM HEPES and 0.5% BSA, pH 7.4) for 20 hours at 4° C. to achieve binding equilibrium. This incubation follows a one hour preincubation at 37° C. in binding buffer alone. For crosslinking experiments, the cells were incubated with 500 μM disuccinimidyl suberate for 20 minutes at […] following binding. Cell extracts were analyzed on SDS-PAGE. […] The curvilinear nature of the Scatchard plot indicates negative cooperativity among BMP-9 receptors or that HepG2 cells express at least two populations of BMP-9 receptors with different affinities. Crosslinking analysis on HepG2 cells with ^125 I-BMP-9 yields two binding proteins of apparent molecular weights of 54 and 80 kD. […]

[2] = tested on: WI-38 cells; experiment: Cell proliferation, [3H]thymidine incorporation, WI-38; assay type: cell-based; conditions: high doses of rhBMP-9, 24 h
Procedure: (§2) Several cell lines are tested for BMP-9 responsiveness in vitro. Cell proliferation, as indicated by [^3 H]thymidine incorporation, is determined in cell lines derived from kidney and lung. Cell proliferation is determined by measuring [^3 H]thymidine incorporation in subconfluent cells treated for 24 h with or without growth factors. NRK-52E (ATCC CRL 1571), WI-38 (ATCC CCL-75), CCD-11Lu (ATCC CCL-202), CCD-16Lu (ATCC CCL-204), and A-549 (ATCC CCL-185) cell lines are placed at 10^4 cells/well in 96 well plates and assayed for [^3 H]thymidine incorporation as described above. IMCD-3 cells (ATCC #CRL-2123) are cultured in a collagen matrix as described by Barros et al., PNAS USA 92:4412-4416 (1995), and treated with growth factors for 6 days to allow tubule formation.

[3] = tested on: Articular cartilage explants from calf carpal joints; experiment: Articular cartilage assay (proteoglycan synthesis, sulfate incorporation); assay type: cell-based
Procedure: The effect of BMP-9 on articular cartilage proteoglycan and DNA synthesis is assayed to determine if BMP-9 is involved in the regulation of metabolism of differentiated articular cartilage.
Articular cartilage explants from calf carpal joints are maintained in DMEM with 50 μg/ml ascorbate, 4 mM glutamine and antibiotics for 3 days. Cytokines (rhBMP-2, rhBMP-4, rhBMP-6 and rhBMP-9, IGF-1, bFGF (1-1000 ng/ml), and TGFβ (1-100 ng/ml)) are added to the medium and culture is continued for 3 more days. Medium is changed daily. Twenty-four hours prior to harvest, explants are pulsed with 50 μCi/ml ^35 SO4 or 25 μCi/ml ^3 H-thymidine. Explants are solubilized and separation of free isotope is performed by gel chromatography. Total DNA of each explant is measured by a spectrophotometric assay.

[4] = tested on: HepG2 cells; experiment: HepG2 cell proliferation (3H-thymidine incorporation, cell counting); assay type: cell-based
Procedure: As a first indication of BMP-9 effects on confluent, serum starved HepG2 cells, cell proliferation is examined as determined by ^3 H-thymidine incorporation and cell counting. HepG2 cells are plated at […] in 96 well plates and cultured for 48 hours in DME/0.1% FCS to synchronize the cell cycle are treated for 24 hours with or without BMP-9 in the presence of 0.1% FCS. In ^3 H-thymidine incorporation assays, ^3 H-thymidine was included during the last 4 hours of treatment and cellular DNA was collected with a 96 well plate cell harvester. Proliferation was assayed by quantifying ethanol-precipitable ^3 H-thymidine incorporation by liquid scintillation counting. For cell counting assays, cells were trypsinized and counted with a hemacytometer. Primary rat hepatocytes isolated from male Fischer 344 rats (Charles River, Wilmington, Mass.) by collagenase digestion as previously described [Michalopoulos et al., Cancer Res. 42:4673-4682 (1982)] are plated on collagen-coated plates at subconfluence (5,000-10,000 cells/cm^2) in serum-free media as described in Michalopoulos et al., Cancer Res. 42:4673-4682 (1982) and treated with or without rhBMP-9 for 36 hours. ^3 H-thymidine was included throughout the treatment period and incorporated ^3 H-thymidine was quantified as described by Anscher et al., New England J. Med. 328:1592-1598 (1993). BMP-9 stimulates ^3 H-thymidine incorporation in HepG2 cells approximately five fold.

[5] = tested on: IMCD-3 cells; experiment: IMCD-3 cell condensation and tubulogenesis in collagen matrix; assay type: cell-based; conditions: IMCD-3 cells in 3-dimensional collagen gel, 100 ng/ml, 6 days, serum-free
Procedure: as §2
In contrast, BMP-9 appeared to stimulate proliferation in several fibroblast cell lines derived from lung. […] The effect of rhBMP-9 on tubulogenesis was examined in IMCD-3 cells, another epithelial kidney cell line. […] It is therefore contemplated that both lung and kidney cells are physiological targets for BMP-9.

[6] = tested on: NMuli; experiment: 125I-BMP-9 binding to NMuli liver cell line; conditions: iodinated CHO-derived BMP-9
Procedure: as §1

B1: BMP-9: recombinant human bone morphogenetic protein-9, mature amino acids #1-#110 of SEQ ID NO:9, expressed in CHO cells (protein)
chain: TRECSRSCPRTAPQRQVRAVTRRTRMAHVAAGSTLARRKRSAGAGSHCQKTSLRVNFEDIGWDSWIIAPKEYEAYECKGGCFFPLADDVTPTKHAIVQTLVHLKFPTKVG
modifications: 125I-iodinated as tracer; unlabelled BMP-9 used as the displacing ligand
[1]
  specific binding of 125I-BMP-9: highest degree of binding
[2]
  cell proliferation ([3H]thymidine incorporation): statistically significant stimulation
[3]; 100 ng/ml, calf articular cartilage explants
  proteoglycan synthesis: significantly more active in stimulating proteoglycan synthesis
[3]; dose of 10 ng/ml, p<0.05, calf articular cartilage explants
  proteoglycan synthesis versus control: stimulates proteoglycan synthesis above control levels
[4]; HepG2 cells, estimated
  ED50, stimulation of 3H-thymidine incorporation: 0.01 µg/mL
[4]; HepG2 cells, treated 24 hours
  cell counting: stimulatory effect
[4]; confluent, serum starved HepG2 cells, treated 24 hours, 0.1% FCS
  stimulation of 3H-thymidine incorporation: approximately five
[5]
  cell condensation and tubulogenesis: did not induce tubules and inhibited the cell condensations and tubule formation observed under control conditions
[6]
  specific binding of 125I-BMP-9: to some extent

Reference: patent US6034062A, “Bone morphogenetic protein (BMP)-9 compositions and their uses” (Genetics Institute, Inc., priority 1997, dated 2000)
